For 5 molecules, Kd results are on record in US20230183319A1 (published 2023).

B1: Activin A (ligand)
chain: GLECDGKVNICCKKQFFVSFKDIGWNDWIIAPSGYHANYCEGECPSHIAGTSGSSLSFHSTVINHYRMRGHSPFANLKSCCVPTKLRPMSMLYYDDGQNIIKKDIQNMIVEECGCS
B2: ActRIIB-G1Fc (SEQ ID NO: 519) (Fc fusion)
chain: GRGEAETRECIYYNANWELERTNQSGLERCEGEQDKRLHCYASWRNSSGTIELVKKGCWLDDFNCYDRQECVATEENPQVYFCCCEGNFCNERFTHLPEAGGPEVTYEPPPTAPTGGGTHTCPPCPAPELLGGPSVFLFPPKPKDTLMISRTPEVTCVVVDVSHEDPEVKFNWYVDGVEVHNAKTKPREEQYNSTYRVVSVLTVLHQDWLNGKEYKCKVSNKALPVPIEKTISKAKGQPREPQVYTLPPSREEMTKNQVSLTCLVKGFYPSDIAVEWESNGQPENNYKTTPPVLDSDGSFFLYSKLTVDKSRWQQGNVFSCSVMHEALHNHYTQKSLSLSPGK
B3: BMP10 (ligand)
chain: NAKGNYCKRTPLYIDFKEIGWDSWIIAPPGYEAYECRGVCNYPLAEHLTPTKHAIIQALVHLKNSQKASKACCVPTKLEPISILYLDKGVVTYKFKYEGMAVSECGCR
B4: BMP9 (ligand)
chain: SAGAGSHCQKTSLRVNFEDIGWDSWIIAPKEYEAYECKGGCFFPLADDVTPTKHAIVQTLVHLKFPTKVGKACCVPTKLSPISVLYKDDMGVPTLKYHYEGMSVAECGCR
B5: GDF11 (ligand)
chain: NLGLDCDEHSSESRCCRYPLTVDFEAFGWDWIIAPKRYKANYCSGQCEYMFMQKYPHTHLVQQANPRGSAGPCCTPTKMSPINMLYFNDKQQIIYGKIPGMVVDRCGCS

One test concerns the target L79K / F82K. The experiment in a line: SPR; 37C.
The next test addresses K55A / F82I. The experiment in a line: SPR; 37C. (In general: In SPR one partner is held on a chip, and binding of the other changes the refractive index at the surface.)
Another test concerns the target K74A. In words: SPR; 37C.
For the next test, the target named is L38Q. In words: SPR; 25C.
The target in another test is Q98L. In words: SPR; 25C.
Another test deals with Q98I. In words: SPR; 25C.
The target in another test is N35Q. The experiment in a line: SPR; 25C.
The target in the next test is Q98K. In words: SPR; 25C.
A further test addresses Q98R. The experiment in a line: SPR; 25C.
A further test concerns the target N35F. In words: SPR; 25C.
For another test, the target named is L38R. In words: SPR; 25C.
A further test concerns the target Q98V. The experiment in a line: SPR; 25C.
A further test deals with Q98A. In words: SPR; 25C.
Another test addresses L38D. In words: SPR; 25C.
For another test, the target named is T1, activin B (UniProt P09529 293-407).
T1 chain: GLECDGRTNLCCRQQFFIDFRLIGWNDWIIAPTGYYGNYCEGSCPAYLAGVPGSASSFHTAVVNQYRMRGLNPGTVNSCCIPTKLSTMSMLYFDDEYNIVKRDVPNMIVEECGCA
In words: SPR; 37C.

The test “GDF11” addresses B5. In words: SPR; 37C.
The next test deals with T2, activin A (UniProt P08476 311-426).
T2 chain: B1 chain
In words: SPR; 37C.

For another test, the target named is GDF8 (UniProt O14793 267-375). In words: SPR; 37C.
Sequence of GDF8 (O14793 267-375): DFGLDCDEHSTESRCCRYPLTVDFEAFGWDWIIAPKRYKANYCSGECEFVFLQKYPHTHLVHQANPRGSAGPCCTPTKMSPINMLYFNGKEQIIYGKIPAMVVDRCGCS
The target of the test “BMP10” is B3. The experiment in a line: SPR; 37 C.
The target in the test “BMP9” is B4. In words: SPR; 37 C.
The next test concerns the target T3, BMP6 (UniProt P22004 382-513).
T3 chain: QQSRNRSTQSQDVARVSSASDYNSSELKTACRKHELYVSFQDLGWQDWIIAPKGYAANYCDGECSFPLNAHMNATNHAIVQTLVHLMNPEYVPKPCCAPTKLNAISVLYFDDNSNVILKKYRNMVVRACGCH
In words: SPR; 37 C.

As usually defined, the Kd is the constant that tells how readily two partners part at equilibrium. Low readings indicate higher affinity, high ones lower affinity. With B1, the Kd with L79K / F82K worked out at 0.64 nM; with K55A / F82I it was 0.047 nM; with K74A it was 0.034 nM; with L38Q, 0.2 nM; with Q98L it was 0.22 nM; with Q98I, 0.157 nM. Moreover, the Kd with N35Q came out at 0.32 nM; with Q98K it was 0.145 nM; with Q98R it was 0.3 nM; with N35F, 0.29 nM; with L38R, 0.23 nM; with Q98V, 0.16 nM. The results for the Kd with Q98A and with L38D were 0.155 nM and 0.23 nM, respectively.
Regarding B2, the Kd with activin B is 0.0225 nM; in the test with GDF11 it was 0.00491 nM; with activin A, 0.0135 nM; with GDF8 it was 0.0795 nM; in the test with BMP10, 0.00841 nM; with BMP9, 0.0831 nM. Also, binding in the test with BMP6 was put at a Kd of 0.431 nM.
As for B3, the Kd worked out at 0.068 nM with L79K / F82K; 0.007 nM with K55A / F82I; 0.033 nM in the test with K74A; 0.089 nM with L38Q; 0.065 nM with Q98L; 0.21 nM with Q98I. In addition, the Kd in the test with N35Q was determined as 0.27 nM; with Q98K it was 0.068 nM; in the test with Q98R, 0.32 nM; with N35F it was 0.22 nM; with L38R, 0.11 nM; with Q98V it was 0.048 nM. Besides, the Kd with Q98A was 0.21 nM; with L38D it was 0.15 nM.
For the molecule B4, the Kd in the test with K55A / F82I came to 0.134 nM; with K74A, 0.36 nM; in the test with L38Q, 0.033 nM; in the test with Q98L it was 0.071 nM; with Q98I it was 0.059 nM; with Q98K, 0.069 nM. In addition, the Kd in the test with Q98R was 0.074 nM; with L38R, 0.05 nM; with Q98V it was 0.047 nM; with Q98A, 0.043 nM; in the test with L38D it was 0.063 nM.
B5: the Kd in the test with L79K / F82K stood at 1.6 nM; with K55A / F82I, 0.09 nM; with K74A, 0.43 nM; in the test with L38Q, 0.021 nM; with Q98L, 0.043 nM; in the test with Q98I, 0.049 nM. The Kd with N35Q is 0.02 nM; with Q98K, 0.037 nM; with Q98R it was 0.02 nM; in the test with N35F, 0.017 nM; with L38R, 0.007 nM; with Q98V, 0.033 nM. For the same molecule, the dissociation constant Kd in the test with Q98A worked out at 0.037 nM; with L38D, 0.03 nM.
